“And” between values parts separate entries of the source, which are not always exact repeats. Equal values may be shown once.
How the values were obtained:
[1] = target: T1, human beta klotho / human FGFR1c receptor complex on cells (human, UniProt Q86Z14 1-1044; P11362 22-822); experiment: cell-based or functional assay
[2] = target: cynomolgus beta klotho / human FGFR1c receptor complex on cells (cynomolgus monkey (Macaca …)); experiment: cell-based or functional assay
[3] = target: T1, human beta klotho / human FGFR1c …; experiment: cell-based or functional assay; remark: listed apart in the source
[4] = target: T2, mouse-human KLB chimeric protein (mouse KLB (M1-F506)-human KLB (S509-S1044)) on cells (mouse/human chimera, UniProt Q86Z14 1-1044 (human entry)); experiment: FACS on transfected Expi293 cells
T2 construct: also called Mouse-Human chimeric KLB; chMoHu
Procedure: (§1) Studies were performed in order to localize the binding site on human KLB of anti-beta klotho antibodies in the 5H23 epitope bin, including 5H23 as described in Example 3, with sequences shown in Tables 1-10 and FIGS. 1-3, and human anti-beta klotho antibodies in the 5H23 epitope bin, such as humanized 5H23 antibodies (e.g., VH SEQ ID NO: 271 and VL SEQ ID NO: 276). For example, FACS-based binding assays for domain mapping were performed on Expi293 cells (Life Technologies, A14635) that were transiently transfected with plasmids encoding variants of KLB: human, mouse, cynomolgus, a chimeric version in which the KL1 domain sequence of mouse KLB (M1-F506) replaces the KL1 domain of human KLB (M1-F508) to create mouse-human KLB (SEQ ID NO: 376), and a second chimera in which the human KL1 sequence (M1-F508) replaces the KL1 domain of mouse KLB (M1-F506) to create human-mouse KLB (SEQ ID NO: 374). Additionally, the expression vector pYD7 harboring no KLB sequence was transfected as a negative control.
(§2) In some studies, binding of a purified sample of a humanized 5H23 antibody (e.g., VH SEQ ID NO: 271 and VL SEQ ID NO: 276) to KLB variants was determined by FACS analysis. […] After washing with PBS/1% BSA/0.1% azide, transfected cells were then co-incubated with labeled anti-human Fc (Jackson lmmunoresearch) for 30 minutes at 4° C. After washing with PBS/1% BSA/0.1% azide, cells were acquired on flow cytometer (FACS Calibur) and analyzed by cytometric software (FlowJo). To display the resulting data, graphs plotting the number of cells as a function of fluorescence intensity were generated, and the median fluorescence intensity (MFI) was determined for each sample as shown in Table 30.

[5] = target: T3, mouse beta klotho expressed on cells (mouse (Mus musculus), UniProt Q99N32 1-1043); experiment: FACS on transfected Expi293 cells, antibody 1 µg/ml, labelled anti-human Fc
T3 construct: also called Mouse KLB
T3 sequence: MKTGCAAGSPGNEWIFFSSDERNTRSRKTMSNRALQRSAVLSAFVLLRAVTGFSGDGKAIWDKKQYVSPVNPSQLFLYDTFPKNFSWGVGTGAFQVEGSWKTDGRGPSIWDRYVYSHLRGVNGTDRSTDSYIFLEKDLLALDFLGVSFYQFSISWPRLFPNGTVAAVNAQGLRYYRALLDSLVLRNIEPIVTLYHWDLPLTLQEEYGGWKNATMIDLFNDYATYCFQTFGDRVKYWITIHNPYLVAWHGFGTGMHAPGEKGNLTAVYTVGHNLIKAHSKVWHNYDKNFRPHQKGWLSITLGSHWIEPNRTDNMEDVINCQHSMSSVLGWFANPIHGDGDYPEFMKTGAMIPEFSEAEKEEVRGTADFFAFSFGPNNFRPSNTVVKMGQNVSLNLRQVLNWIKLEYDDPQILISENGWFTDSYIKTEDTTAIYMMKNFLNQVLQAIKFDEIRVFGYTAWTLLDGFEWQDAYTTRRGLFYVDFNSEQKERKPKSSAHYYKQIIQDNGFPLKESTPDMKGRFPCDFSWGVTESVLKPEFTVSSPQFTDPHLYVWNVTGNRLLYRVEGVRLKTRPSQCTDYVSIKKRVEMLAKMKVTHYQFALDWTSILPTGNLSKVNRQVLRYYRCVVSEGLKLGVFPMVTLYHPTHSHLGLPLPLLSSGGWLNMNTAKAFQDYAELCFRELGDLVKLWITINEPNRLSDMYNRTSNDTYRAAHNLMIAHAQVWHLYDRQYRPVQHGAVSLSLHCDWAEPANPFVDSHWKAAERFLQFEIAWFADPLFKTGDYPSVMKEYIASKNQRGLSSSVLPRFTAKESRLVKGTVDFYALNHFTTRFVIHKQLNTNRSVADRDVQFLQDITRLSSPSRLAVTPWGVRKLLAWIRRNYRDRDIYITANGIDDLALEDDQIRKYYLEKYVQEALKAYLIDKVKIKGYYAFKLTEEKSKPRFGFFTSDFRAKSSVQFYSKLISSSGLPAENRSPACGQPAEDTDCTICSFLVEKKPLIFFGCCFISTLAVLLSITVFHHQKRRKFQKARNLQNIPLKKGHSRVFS
Procedure: as §1, §2

[6] = target: T2, mouse-human KLB chimeric protein (mouse …); experiment: as above
Procedure: as §1, §2

T1 sequence (Q86Z14 whole entry, chain 1 of 2): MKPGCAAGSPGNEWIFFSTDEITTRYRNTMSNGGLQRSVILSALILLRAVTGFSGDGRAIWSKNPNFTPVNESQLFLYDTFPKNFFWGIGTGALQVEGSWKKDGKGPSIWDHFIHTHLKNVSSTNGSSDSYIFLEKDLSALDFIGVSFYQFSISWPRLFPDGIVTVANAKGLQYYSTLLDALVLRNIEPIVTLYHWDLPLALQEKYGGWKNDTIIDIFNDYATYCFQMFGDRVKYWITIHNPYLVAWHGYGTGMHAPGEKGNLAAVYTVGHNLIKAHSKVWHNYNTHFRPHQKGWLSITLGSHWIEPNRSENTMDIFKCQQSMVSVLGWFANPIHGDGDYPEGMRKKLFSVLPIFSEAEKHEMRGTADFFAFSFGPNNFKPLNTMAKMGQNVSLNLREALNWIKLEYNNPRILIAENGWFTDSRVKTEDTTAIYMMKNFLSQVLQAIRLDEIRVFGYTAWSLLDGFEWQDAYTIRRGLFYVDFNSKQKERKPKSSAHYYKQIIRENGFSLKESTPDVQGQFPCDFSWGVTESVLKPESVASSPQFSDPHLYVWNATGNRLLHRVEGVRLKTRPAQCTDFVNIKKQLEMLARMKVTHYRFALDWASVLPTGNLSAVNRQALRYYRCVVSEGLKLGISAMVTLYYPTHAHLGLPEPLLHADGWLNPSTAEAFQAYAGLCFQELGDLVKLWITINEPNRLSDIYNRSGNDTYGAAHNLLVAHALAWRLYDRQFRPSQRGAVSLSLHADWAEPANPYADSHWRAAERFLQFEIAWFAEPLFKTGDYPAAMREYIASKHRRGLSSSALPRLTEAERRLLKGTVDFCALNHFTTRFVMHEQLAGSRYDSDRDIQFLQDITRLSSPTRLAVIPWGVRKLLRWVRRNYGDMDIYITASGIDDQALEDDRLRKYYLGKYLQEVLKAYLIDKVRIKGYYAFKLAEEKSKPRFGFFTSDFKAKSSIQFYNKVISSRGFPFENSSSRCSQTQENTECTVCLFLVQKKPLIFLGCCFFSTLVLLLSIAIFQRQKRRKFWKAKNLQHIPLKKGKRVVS
T1 sequence (P11362 22-822 limits assumed, chain 2 of 2): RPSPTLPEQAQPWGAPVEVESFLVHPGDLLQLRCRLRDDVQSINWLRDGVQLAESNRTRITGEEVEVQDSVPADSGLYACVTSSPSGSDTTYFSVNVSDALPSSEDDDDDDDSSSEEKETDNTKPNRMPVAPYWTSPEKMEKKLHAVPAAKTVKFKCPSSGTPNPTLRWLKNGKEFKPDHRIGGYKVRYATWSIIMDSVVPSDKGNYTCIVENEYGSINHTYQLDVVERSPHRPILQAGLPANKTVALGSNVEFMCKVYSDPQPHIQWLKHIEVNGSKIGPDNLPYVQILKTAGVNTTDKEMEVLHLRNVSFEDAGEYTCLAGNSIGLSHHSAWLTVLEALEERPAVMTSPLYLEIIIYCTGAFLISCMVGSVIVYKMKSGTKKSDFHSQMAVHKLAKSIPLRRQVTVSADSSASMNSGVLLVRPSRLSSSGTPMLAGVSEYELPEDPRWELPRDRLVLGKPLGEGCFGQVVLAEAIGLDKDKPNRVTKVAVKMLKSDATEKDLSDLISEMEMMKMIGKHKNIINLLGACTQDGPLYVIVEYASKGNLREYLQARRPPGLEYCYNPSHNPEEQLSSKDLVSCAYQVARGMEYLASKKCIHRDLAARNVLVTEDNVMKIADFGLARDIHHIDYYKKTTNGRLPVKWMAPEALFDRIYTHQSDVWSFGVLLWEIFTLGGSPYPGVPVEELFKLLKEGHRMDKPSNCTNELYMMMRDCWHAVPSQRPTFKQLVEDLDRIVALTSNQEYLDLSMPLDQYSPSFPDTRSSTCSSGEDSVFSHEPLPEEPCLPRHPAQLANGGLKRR
Sequence of cynomolgus beta klotho / human FGFR1c receptor complex on cells (cynomolgus monkey (Macaca …)) (chain, as listed by the source limits assumed, chain 1 of 2): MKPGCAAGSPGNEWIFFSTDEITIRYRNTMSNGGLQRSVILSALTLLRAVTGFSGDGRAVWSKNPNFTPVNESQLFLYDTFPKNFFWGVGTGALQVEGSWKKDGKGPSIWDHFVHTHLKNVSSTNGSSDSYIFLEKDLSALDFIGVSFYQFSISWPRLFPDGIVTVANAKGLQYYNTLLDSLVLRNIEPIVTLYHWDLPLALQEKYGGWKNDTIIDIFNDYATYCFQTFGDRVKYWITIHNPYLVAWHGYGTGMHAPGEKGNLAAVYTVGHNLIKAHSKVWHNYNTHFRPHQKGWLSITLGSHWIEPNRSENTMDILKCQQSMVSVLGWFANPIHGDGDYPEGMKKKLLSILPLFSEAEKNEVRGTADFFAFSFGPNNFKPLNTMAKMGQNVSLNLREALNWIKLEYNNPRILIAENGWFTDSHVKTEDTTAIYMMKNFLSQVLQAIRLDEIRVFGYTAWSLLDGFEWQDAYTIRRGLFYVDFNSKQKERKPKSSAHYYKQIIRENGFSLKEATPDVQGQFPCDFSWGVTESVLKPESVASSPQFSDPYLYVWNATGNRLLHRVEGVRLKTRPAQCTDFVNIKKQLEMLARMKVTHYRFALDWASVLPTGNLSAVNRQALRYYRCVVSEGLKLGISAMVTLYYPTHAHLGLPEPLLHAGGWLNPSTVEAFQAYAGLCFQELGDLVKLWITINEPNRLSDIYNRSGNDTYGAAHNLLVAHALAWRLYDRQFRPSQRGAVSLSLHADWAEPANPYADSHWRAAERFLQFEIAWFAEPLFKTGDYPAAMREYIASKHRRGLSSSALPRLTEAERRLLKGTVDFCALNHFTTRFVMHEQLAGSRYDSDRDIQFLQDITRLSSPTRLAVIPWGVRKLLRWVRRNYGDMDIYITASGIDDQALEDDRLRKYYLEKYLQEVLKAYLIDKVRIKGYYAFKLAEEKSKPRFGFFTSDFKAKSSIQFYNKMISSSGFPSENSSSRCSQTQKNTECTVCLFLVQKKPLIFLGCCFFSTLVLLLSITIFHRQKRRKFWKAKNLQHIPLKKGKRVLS
Sequence of cynomolgus beta klotho / human FGFR1c receptor complex on cells (cynomolgus monkey (Macaca …)) (chain, as listed by the source limits assumed, chain 2 of 2): as the sequence (P11362 22-822 limits assumed, chain 2 of 2) above

B1: Control mAb comprising SEQ ID NO: 358 and SEQ ID NO: 360 (antibody, human IgG2, lambda, V domains shown)
VH: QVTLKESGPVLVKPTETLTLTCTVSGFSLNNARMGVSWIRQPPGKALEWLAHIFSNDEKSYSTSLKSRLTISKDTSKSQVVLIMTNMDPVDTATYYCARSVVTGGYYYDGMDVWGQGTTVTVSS
VL: SYVLTQPPSVSVAPGQTARITCGGNNIGSESVHWYQQKPGQAPVLVVYDDSDRPSGIPERFSGSNSGNTATLTISRVEAGDEADYYCQVWDGNSDHVVFGGGTKLTVLG
notes: also called Control antibody
HEK293 huKLB/R1c reporter assay EC50, Experiment - A [1]: 0.0453 nM | HEK293 huKLB/R1c reporter assay EC50, Experiment - B [1]: 0.0279 nM | HEK293 cynoKLB/R1c reporter assay EC50, Experiment - A [2]: 0.108 nM and 0.178 nM | HEK293 cynoKLB/R1c reporter assay EC50, Experiment - B [2]: 0.227 nM | EC50-adipocyte [3]: 3.4 nM | EC50 reporter assay [3]: 0.2 nM and 0.54 nM | binding result [4]: no binding (tested: 1 µg/ml) | Mean Fluorescence intensity [5]: 10.6 MFI | Mean Fluorescence intensity [6]: 5.6 MFI
